What all share (test): cell-based or functional assay
For assay [1], the target named is HIV envelope gp160 of X2278 (pseudotyped virus) (HIV).
For assay [2], the target named is HIV envelope gp160 of CH119 (pseudotyped virus) (HIV).
The target of assay [3] is HIV envelope gp160 of CE1176 (pseudotyped virus) (HIV).
In assay [4] the target is HIV envelope gp160 of CNE8 (pseudotyped virus) (HIV).
The target in assay [5] is HIV envelope gp160 of BJOX2000 (pseudotyped virus) (HIV).
Assay [6] deals with HIV envelope gp160 of 398F1 (pseudotyped virus) (HIV).
Assay [7] has as its target HIV envelope gp160 of CE0217 (pseudotyped virus) (HIV).
The target in assay [8] is HIV envelope gp160 of 25710 (pseudotyped virus, Tier 2, clade C) (HIV).
Assay [9] concerns the target HIV envelope gp160 of 246F3 (pseudotyped virus) (HIV).
Assay [10] addresses HIV envelope gp160 of X1632 (pseudotyped virus) (HIV).
For assay [11], the target named is SIVmac239 envelope (pseudotyped virus, tier 3 isolate) (SIV).
The target of assay [12] is HIV envelope gp160 of CNE55 (pseudotyped virus) (HIV).
Assay [13] addresses HIV envelope gp160 of TRO11 (pseudotyped virus) (HIV).

Consider “ReCD4-Ig (expressed from p-ReCD4-Ig alone, no co-delivered sulfotransferase) (Fc fusion)”, for which the IC50, pseudovirus neutralization, TZM-bl assay, mouse sera in [1], in [2], in assay [3], in [4], in assay [5] and in assay [6] was less than 5 µg/mL throughout. The IC50, pseudovirus neutralization, TZM-bl assay, mouse sera in assay [7], in assay [8], in assay [9], in assay [10], in assay [11] and in [12] was less than 5 µg/mL each time. Further, the IC50, pseudovirus neutralization, TZM-bl assay, mouse sera in assay [13] was less than 5 µg/mL. Also, the IC50, neutralization of CE1176 pseudovirus, TZM-bl assay, mouse sera in assay [3] was 0.57 µg/mL. The substance further returned an IC50, neutralization of 25710 pseudovirus, TZM-bl assay, mouse sera in [8] of 1.09 µg/mL. The substance further gave an IC80, neutralization of 25710 pseudovirus, TZM-bl assay, mouse sera in [8] of 3.27 µg/mL.
Take “ReCD4-Ig sulfated by co-expressed IgE-TPST2 (Fc fusion)”: the IC50, pseudovirus neutralization, TZM-bl assay, mouse sera in [1], in assay [2], in assay [3], in [4], in assay [5] and in [6] was less than 5 µg/mL in each case. Further, the IC50, pseudovirus neutralization, TZM-bl assay, mouse sera in assay [7], in [8], in assay [9], in assay [10], in assay [12] and in [13] was less than 5 µg/mL in each case. Further, the IC50, neutralization of CE1176 pseudovirus, TZM-bl assay, mouse sera in [3] came out at 0.05 µg/mL. Further, the fold drop in IC50 against ReCD4-Ig without sulfation was 10 fold in assay [3] and 6.8 fold in assay [8]. The substance also had an IC50, neutralization of 25710 pseudovirus, TZM-bl assay, mouse sera in [8] of 0.16 µg/mL. This substance yielded an IC80, neutralization of 25710 pseudovirus, TZM-bl assay, mouse sera in assay [8] of 1.35 µg/mL. The fold drop in IC80 against ReCD4-Ig without sulfation in [8] was 2.4 fold.

(Values after patent US20210244795A1.)
